Laboratory results published in the array DNA melting data of Ke et al..

Columns and labels:
[1] = melting temperature; UV melt of duplexes
[2] = melting temperature; melt of duplexes; conditions: sodium 0.0675 M; strand 1 µM

AAAGTACATCAACATAGAGAATTGCATTTC+GAAATGCAATTCTCTATGTTGATGTACTTT ((((((((((((((((((((((((((((((+))))))))))))))))))))))))))))))
Tm ([1]; sodium 0.07 M, strand 2 µM): 58.3 °C
Tm ([1]; sodium 0.12 M, strand 2 µM): 61.9 °C
Tm ([1]; sodium 0.22 M, strand 2 µM): 66.1 °C
Tm ([1]; sodium 0.62 M, strand 2 µM): 71.3 °C
Tm ([1]; sodium 1.02 M, strand 2 µM): 73.2 °C

AAAAAAAGCTTTTTTT+AAAAAAAGCTTTTTTT ((((((((((((((((+))))))))))))))))
Tm ([1]; sodium 0.12 M, strand 5 µM): 44 °C

GTAGAATTCTTTTCCTTCTAGATCG+CGATCTAGAAGGAAAAGAATTCTAC (((((((((((((((((((((((((+)))))))))))))))))))))))))
Tm ([1]; sodium 0.1 M, strand 1 µM): 62 °C

AATATCTCTCATGCGCCAAGCTACA+TGTAGCTTGGCGCATGAGAGATATT (((((((((((((((((((((((((+)))))))))))))))))))))))))
Tm ([1]; sodium 0.07 M, strand 2 µM): 62.1 °C
Tm ([1]; sodium 0.12 M, strand 2 µM): 65.7 °C
Tm ([1]; sodium 0.22 M, strand 2 µM): 70.3 °C
Tm ([1]; sodium 0.62 M, strand 2 µM): 75.1 °C
Tm ([1]; sodium 1.02 M, strand 2 µM): 76.5 °C

CGCCGCTGCCGACTGGAGGAGCGCGGGACG+CGTCCCGCGCTCCTCCAGTCGGCAGCGGCG ((((((((((((((((((((((((((((((+))))))))))))))))))))))))))))))
Tm ([1]; sodium 0.07 M, strand 2 µM): 77.8 °C
Tm ([1]; sodium 0.12 M, strand 2 µM): 81.6 °C
Tm ([1]; sodium 0.22 M, strand 2 µM): 84.6 °C
Tm ([1]; sodium 0.62 M, strand 2 µM): 87.7 °C
Tm ([1]; sodium 1.02 M, strand 2 µM): 88.6 °C

ACTGATTAGGATCCATATGTCA+TGACATATGGATCCTAATCAGT ((((((((((((((((((((((+))))))))))))))))))))))
Tm ([1]; sodium 0.12 M, strand 5 µM): 58.3 °C

TATTGAGAACAAGTGTCCGATTAGCAGAAA+TTTCTGCTAATCGGACACTTGTTCTCAATA ((((((((((((((((((((((((((((((+))))))))))))))))))))))))))))))
Tm ([1]; sodium 0.07 M, strand 2 µM): 61.3 °C
Tm ([1]; sodium 0.12 M, strand 2 µM): 65.4 °C
Tm ([1]; sodium 0.22 M, strand 2 µM): 69.6 °C
Tm ([1]; sodium 0.62 M, strand 2 µM): 74.8 °C
Tm ([1]; sodium 1.02 M, strand 2 µM): 76.4 °C

AACGTGAATTCTGGCA+TGCCAGAATTCACGTT ((((((((((((((((+))))))))))))))))
Tm ([1]; sodium 0.12 M, strand 7.4 µM): 58.3 °C

GCGAGCGACAGGTTACTTGGCTGAT+ATCAGCCAAGTAACCTGTCGCTCGC (((((((((((((((((((((((((+)))))))))))))))))))))))))
Tm ([1]; sodium 0.07 M, strand 2 µM): 67 °C
Tm ([1]; sodium 0.12 M, strand 2 µM): 70.8 °C
Tm ([1]; sodium 0.22 M, strand 2 µM): 74.7 °C
Tm ([1]; sodium 0.62 M, strand 2 µM): 78.6 °C
Tm ([1]; sodium 1.02 M, strand 2 µM): 80.1 °C

CGACGTGCAGCATGTGCTG+CAGCACATTGGGCACGTCG ((((((((...((((((((+))))))))...))))))))
Tm [2]: 47.2 °C

CGACGTGCGTTATGTGCTG+CAGCACATCAGGCACGTCG ((((((((.(.((((((((+)))))))).).))))))))
Tm [2]: 49.9 °C

CGACGTGCCGGATGTGCTG+CAGCACATCGCGCACGTCG ((((((((..(((((((((+)))))))))..))))))))
Tm [2]: 55.4 °C

CGACGTGCATTATGTGCTG+CAGCACATGTGGCACGTCG ((((((((...((((((((+))))))))...))))))))
Tm [2]: 49.2 °C

CGACGTGCTGAATGTGCTG+CAGCACATGGCGCACGTCG ((((((((...((((((((+))))))))...))))))))
Tm [2]: 52.3 °C

CGACGTGCTTCATGTGCTG+CAGCACATCATGCACGTCG ((((((((.(.((((((((+)))))))).).))))))))
Tm [2]: 49.2 °C

CGACGTGCCTTATGTGCTG+CAGCACATTTGGCACGTCG (((((((((..((((((((+))))))))..)))))))))
Tm [2]: 54.3 °C

CGACGTGCCGGATGTGCTG+CAGCACATCCTGCACGTCG ((((((((.((((((((((+)))))))))).))))))))
Tm [2]: 58.9 °C

CGACGTGCAGAATGTGCTG+CAGCACATCATGCACGTCG (((((((((..((((((((+))))))))..)))))))))
Tm [2]: 53 °C

CGACGTGCACGATGTGCTG+CAGCACATAAAGCACGTCG ((((((((...((((((((+))))))))...))))))))
Tm [2]: 46.8 °C

CGACGTGCGCTATGTGCTG+CAGCACATAAGGCACGTCG ((((((((..(((((((((+)))))))))..))))))))
Tm [2]: 51.6 °C

CGACGTGCCCAATGTGCTG+CAGCACATTCGGCACGTCG (((((((((.(((((((((+))))))))).)))))))))
Tm [2]: 55.8 °C

CGACGTGCGGTATGTGCTG+CAGCACATCCCGCACGTCG ((((((((((.((((((((+)))))))).))))))))))
Tm [2]: 59.9 °C

CGACGTGCAGGATGTGCTG+CAGCACATCGTGCACGTCG (((((((((.(((((((((+))))))))).)))))))))
Tm [2]: 58.3 °C
